From the Immune Epitope Database (IEDB) come the findings set out here.

The target in test [1] is HLA-B*18:01. Put plainly: IEDB peptide-MHC binding, purified MHC/direct/fluorescence; filed as Kd, often an IC50 or EC50 that approximates it; ≥ and ≤ were set here for values at or beyond the usual limits of such assays. The note with it: source organism: Mycobacterium tuberculosis.
For test [2], the target named is HLA-A*02:01. The test is described as above. The settings on record: source organism: Mycobacterium tuberculosis.
The target in another test is HLA-B*58:01. Described as above.
The next test deals with HLA-A*03:01. Described as above. The note with it: source organism: Mycobacterium tuberculosis.
In another test the target is HLA-B*57:01. Described as above.
Test [3] has as its target HLA-B*15:01. Described as above.
The target of a further test is HLA-B*08:02. Described as above.
The target in the next test is HLA-B*51:01. The description is as above. The settings on record: source organism: Mycobacterium tuberculosis.
Test [4] deals with HLA-B*27:05. The test is described as above. The note with it: source organism: Mycobacterium tuberculosis.
Test [5] deals with HLA-B*15:17. Described as above. The settings on record: source organism: Mycobacterium tuberculosis.
For a further test, the target named is HLA-B*08:01. The description is as above.
A further test concerns the target HLA-A*69:01. Described as above.
The target of a further test is HLA-B*46:01. The test is described as above.
The target of another test is HLA-B*48:01. The description is as above.
In a further test the target is HLA-B*40:01. Described as above. The note with it: source organism: Mycobacterium tuberculosis.
The next test addresses HLA-A*01:01. The test is described as above.
The target in another test is HLA-A*11:01. The test is described as above.
For test [6], the target named is HLA-A*26:01. The description is as above. The settings on record: source organism: Mycobacterium tuberculosis str. Haarlem.
Another test concerns the target HLA-A*31:01. Described as above.
The target of a further test is HLA-B*15:09. Put plainly: IEDB peptide-MHC binding, purified MHC/competitive/fluorescence; filed as Kd, often an IC50 or EC50 that approximates it; ≥ and ≤ were set here for values at or beyond the usual limits of such assays.
For another test, the target named is HLA-B*39:01. Described as above.
In a further test the target is HLA-A*80:01. As to the kind of experiment: IEDB peptide-MHC binding, purified MHC/direct/fluorescence; filed as Kd, often an IC50 or EC50 that approximates it; ≥ and ≤ were set here for values at or beyond the usual limits of such assays.
The target of another test is HLA-B*08:03. The test is described as above. The note with it: source organism: Mycobacterium tuberculosis str. Haarlem.
In a further test the target is HLA-A*68:02. Described as above.
Another test has as its target HLA-B*07:02. Described as above.
For a further test, the target named is HLA-A*02:06. As to the kind of experiment: IEDB peptide-MHC binding, purified MHC/competitive/fluorescence; filed as Kd, often an IC50 or EC50 that approximates it; ≥ and ≤ were set here for values at or beyond the usual limits of such assays. The note with it: source organism: Mycobacterium tuberculosis variant bovis BCG str. Pasteur 1173P2.
In test [7] the target is HLA-B*18:01. The description is as above. The settings on record: source organism: Mycobacterium tuberculosis variant bovis BCG str. Pasteur 1173P2.
Test [8] has as its target HLA-B*15:01. The test is described as above. The settings on record: source organism: Mycobacterium tuberculosis variant bovis BCG str. Pasteur 1173P2.
Test [9] concerns the target HLA-A*26:02. The description is as above.
In the next test the target is HLA-A*26:03. The description is as above. The note with it: source organism: Mycobacterium tuberculosis variant bovis BCG str. Pasteur 1173P2.
The target of the next test is HLA-C*07:02. Put plainly: IEDB peptide-MHC binding, purified MHC/direct/fluorescence; filed as Kd, often an IC50 or EC50 that approximates it; ≥ and ≤ were set here for values at or beyond the usual limits of such assays. The settings on record: source organism: Variola virus.
For test [10], the target named is HLA-A*02:01. Put plainly: IEDB peptide-MHC binding, purified MHC/competitive/fluorescence; filed as Kd, often an IC50 or EC50 that approximates it; ≥ and ≤ were set here for values at or beyond the usual limits of such assays. The note with it: source organism: Variola virus.
The target of test [11] is HLA-B*27:05. The test is described as above. The note with it: source organism: Variola virus.
Test [12] addresses HLA-B*15:17. The test is described as above. The settings on record: source organism: Variola virus.
The target of test [13] is HLA-A*26:01. The test is described as above. The settings on record: source organism: Variola virus.
A further test has as its target HLA-B*15:03. Put plainly: IEDB peptide-MHC binding, purified MHC/competitive/radioactivity; filed as Kd, often an IC50 or EC50 that approximates it; ≥ and ≤ were set here for values at or beyond the usual limits of such assays. The settings on record: source organism: Vaccinia virus WR.
Test [14] concerns the target HLA-A*26:02. As to the kind of experiment: IEDB peptide-MHC binding, purified MHC/direct/fluorescence; filed as Kd, often an IC50 or EC50 that approximates it; ≥ and ≤ were set here for values at or beyond the usual limits of such assays. The note with it: source organism: Yellow fever virus.
A further test has as its target HLA-B*14:02. The description is as above. The settings on record: source organism: Homo sapiens.
Where [15] appears, read: source organism: Mycobacterium tuberculosis.
[16] abbreviates: source organism: Mycobacterium tuberculosis str. Haarlem.
The mark [17] stands for this setting: source organism: Mycobacterium tuberculosis C.
Setting [18] is: source organism: Camelpox virus CMS.
[19] abbreviates: source organism: Camelpox virus M-96.

With RPAPATGAL, the Kd with HLA-B*18:01 [1], with HLA-A*02:01 [2], with HLA-B*58:01 (setting [15]), in the test with HLA-A*03:01, in the test with HLA-B*57:01 (setting [15]) and in the test with HLA-B*15:01 [3] (setting [15]) was no less than 20 µM throughout. The Kd (in general, a measure of binding affinity in units of concentration) is no less than 20 µM with HLA-B*08:02 (setting [16]); no less than 20 µM in the test with HLA-B*51:01; no less than 20 µM with HLA-B*27:05 [4]; no less than 20 µM in the test with HLA-B*15:17 [5]; no less than 20 µM with HLA-B*08:01 (setting [16]); 0.739 µM with HLA-A*69:01 (setting [15]). The Kd with HLA-B*46:01 (setting [15]), with HLA-B*48:01 (setting [15]), with HLA-B*40:01, with HLA-A*01:01 (setting [15]), in the test with HLA-A*11:01 (setting [15]) and with HLA-A*26:01 [6] was no less than 20 µM in each case. Moreover, the Kd in the test with HLA-A*31:01 (setting [15]) was no less than 20 µM; with HLA-B*15:09 (setting [17]), 0.0786 µM; in the test with HLA-B*39:01 (setting [17]), 0.0042 µM.
As to ITDFNIDTY, the Kd in the test with HLA-A*80:01 (setting [18]) is 0.307 µM; with HLA-A*01:01 (setting [18]), no more than 0.001 µM.
For the sequence KVMVICYAY, the Kd with HLA-A*02:01 [2] was no less than 20 µM; with HLA-B*58:01 (setting [15]), 0.705 µM; in the test with HLA-B*57:01 (setting [15]) it was no less than 20 µM; with HLA-B*08:02 (setting [16]) it was no less than 20 µM; with HLA-B*08:03 it was no less than 20 µM; with HLA-B*27:05 [4], no less than 20 µM. In addition, the Kd with HLA-B*15:17 [5] is 6.9 µM; with HLA-B*08:01 (setting [16]), no less than 20 µM; with HLA-A*69:01 (setting [15]) it was no less than 20 µM; with HLA-B*46:01 (setting [15]), no less than 20 µM; with HLA-B*48:01 (setting [15]), no less than 20 µM; in the test with HLA-B*40:01, no less than 20 µM. The Kd in the test with HLA-A*01:01 (setting [15]) is 11.8 µM; with HLA-A*11:01 (setting [15]), 0.492 µM; with HLA-A*68:02 (setting [15]), no less than 20 µM; in the test with HLA-A*31:01 (setting [15]), 4.16 µM; with HLA-B*07:02 (setting [15]) it was no less than 20 µM; with HLA-A*02:06, no less than 20 µM. Moreover, the Kd was 3.29 µM with HLA-B*18:01 [7], no less than 20 µM in the test with HLA-B*15:01 [8], no less than 20 µM with HLA-A*26:02 [9] (source organism: Mycobacterium tuberculosis variant bovis BCG str. Pasteur 1173P2) and no less than 20 µM with HLA-A*26:03.
SQIETGTPF: the Kd with HLA-B*58:01 (setting [19]) is no less than 20 µM; with HLA-B*57:01 (setting [19]) it was no less than 20 µM; in the test with HLA-C*07:02 it was no less than 20 µM; in the test with HLA-B*15:01 [3] (setting [19]), 0.014 µM; with HLA-B*08:02 (source organism: Variola virus), no less than 20 µM; with HLA-B*08:01 (source organism: Variola virus), no less than 20 µM. Also, the Kd was no less than 20 µM with HLA-A*69:01 (setting [19]); 3.06 µM with HLA-B*46:01 (setting [19]); 1.65 µM with HLA-B*48:01 (setting [19]); no less than 20 µM with HLA-A*01:01 (setting [19]); no less than 20 µM with HLA-A*11:01 (setting [19]); no less than 20 µM with HLA-A*68:02 (setting [19]). For the same sequence, the Kd with HLA-A*31:01 (setting [19]) is no less than 20 µM; in the test with HLA-B*07:02 (setting [19]) it was no less than 20 µM; in the test with HLA-A*02:01 [10] it was no less than 20 µM; with HLA-B*15:09 (source organism: Variola virus) it was 0.0673 µM; in the test with HLA-B*27:05 [11] it was no less than 20 µM; with HLA-B*15:17 [12], no less than 20 µM. The Kd turned out to be 0.0008 µM with HLA-A*26:02 [9] (source organism: Variola virus), 1.79 µM with HLA-A*26:01 [13], 0.0146 µM with HLA-B*39:01 (source organism: Variola virus) and 0.00133 µM with HLA-B*15:03.
As for EVDQTKIQY, the Kd was no less than 20 µM with HLA-A*80:01 (source organism: Yellow fever virus) and 1.61 µM in the test with HLA-A*26:02 [14].
For LQRIHAEI, in the test with HLA-B*14:02, the Kd is 0.133 µM.
